In PMC6309520 one finds Km and Vmax data, which are given here for three proteins.

Holding throughout (assay): Michaelis-Menten kinetics
Substrate in data set [1]: Nc1ncnc2c1ncn2[C@@H]1O[C@H](COP(=O)(O)OP(=O)(O)OC[C@H]2O[C@H](Oc3ccc([N+](=O)[O-])cc3)[C@H](O)[C@@H]2O)[C@@H](O)[C@H]1O
The format is biochemical, Homo sapiens. To be noted: Mg2+ ([…] MgCl2 in assay buffer).

Substrate in data set [2]: Nc1ncnc2c1ncn2[C@@H]1O[C@H](COP(=O)(O)OP(=O)(O)OC[C@H]2O[C@H](Oc3ccc4c(C(F)(F)F)cc(=O)oc4c3)[C@H](O)[C@@H]2O)[C@@H](O)[C@H]1O
The format is biochemical, Homo sapiens.

Substrate in data set [3]: Nc1ncnc2c1ncn2[C@@H]1O[C@H](COP(=O)(O)OP(=O)(O)OC[C@H]2O[C@H](Oc3ccc([N+](=O)[O-])cc3)[C@H](O)[C@@H]2O)[C@@H](O)[C@H]1O
The format is biochemical, Tetrahymena thermophila.

Substrate in data set [4]: Nc1ncnc2c1ncn2[C@@H]1O[C@H](COP(=O)(O)OP(=O)(O)OC[C@H]2O[C@H](Oc3ccc4c(C(F)(F)F)cc(=O)oc4c3)[C@H](O)[C@@H]2O)[C@@H](O)[C@H]1O
The format is biochemical, Tetrahymena thermophila.

As a reminder, the Km is the concentration of substrate that gives half-maximal velocity. The Vmax is the rate approached at saturating substrate.

Where two headings read alike, the source gives them in different places.

B1: ARH3 (ADP-ribosyl hydrolase 3, ADPRHL2) (Homo sapiens) (protein)
chain: MAAAAMAAAAGGGAGAARSLSRFRGCLAGALLGDCVGSFYEAHDTVDLTSVLRHVQSLEPDPGTPGSERTEALYYTDDTAMARALVQSLLAKEAFDEVDMAHRFAQEYKKDPDRGYGAGVVTVFKKLLNPKCRDVFEPARAQFNGKGSYGNGGAMRVAGISLAYSSVQDVQKFARLSAQLTHASSLGYNGAILQALAVHLALQGESSSEHFLKQLLGHMEDLEGDAQSVLDARELGMEERPYSSRLKKIGELLDQASVTREEVVSELGNGIAAFESVPTAIYCFLRCMEPDPEIPSAFNSLQRTLIYSISLGGDTDTIATMAGAIAGAYYGMDQVPESWQQSCEGYEETDILAQSLHRVFQKS
As to B1, in data set [1], the Km came out at 3.2 ± 0.6 µM and the Vmax was 1.7 µmol/min/mg. Besides, in data set [2] (Mg2+ ([…] MgCl2 in assay buffer)), the Km turned out to be 6.3 ± 0.2 µM and the Vmax came out at 1.61 µmol/min/mg.

B2: PARG (poly(ADP-ribose) glycohydrolase) (Homo sapiens) (protein)
chain: MNAGPGCEPCTKRPRWGAATTSPAASDARSFPSRQRRVLDPKDAHVQFRVPPSSPACVPGRAGQHRGSATSLVFKQKTITSWMDTKGIKTAESESLDSKENNNTRIESMMSSVQKDNFYQHNVEKLENVSQLSLDKSPTEKSTQYLNQHQTAAMCKWQNEGKHTEQLLESEPQTVTLVPEQFSNANIDRSPQNDDHSDTDSEENRDNQQFLTTVKLANAKQTTEDEQAREAKSHQKCSKSCDPGEDCASCQQDEIDVVPESPLSDVGSEDVGTGPKNDNKLTRQESCLGNSPPFEKESEPESPMDVDNSKNSCQDSEADEETSPGFDEQEDGSSSQTANKPSRFQARDADIEFRKRYSTKGGEVRLHFQFEGGESRTGMNDLNAKLPGNISSLNVECRNSKQHGKKDSKITDHFMRLPKAEDRRKEQWETKHQRTERKIPKYVPPHLSPDKKWLGTPIEEMRRMPRCGIRLPLLRPSANHTVTIRVDLLRAGEVPKPFPTHYKDLWDNKHVKMPCSEQNLYPVEDENGERTAGSRWELIQTALLNKFTRPQNLKDAILKYNVAYSKKWDFTALIDFWDKVLEEAEAQHLYQSILPDMVKIALCLPNICTQPIPLLKQKMNHSITMSQEQIASLLANAFFCTFPRRNAKMKSEYSSYPDINFNRLFEGRSSRKPEKLKTLFCYFRRVTEKKPTGLVTFTRQSLEDFPEWERCEKPLTRLHVTYEGTIEENGQGMLQVDFANRFVGGGVTSAGLVQEEIRFLINPELIISRLFTEVLDHNECLIITGTEQYSEYTGYAETYRWSRSHEDGSERDDWQRRCTEIVAIDALHFRRYLDQFVPEKMRRELNKAYCGFLRPGVSSENLSAVATGNWGCGAFGGDARLKALIQILAAAAAERDVVYFTFGDSELMRDIYSMHIFLTERKLTVGDVYKLLLRYYNEECRNCSTPGPDIKLYPFIYHAVESCAETADHSGQRTGT
Regarding B2, in data set [2], the Km was 66.2 ± 15 µM and the Vmax came out at 0.84 µmol/min/mg.

B3: ttPARG (T. thermophila PARG) (Tetrahymena thermophila) (protein)
chain: MIEAEKQENKKIQDYQFPLPQKNSELWIIQKKTLQDLSSGKQKLDSFQSLESILEILRDSKNQNDEKYFNLKAVFEQLDKEEQTYFLEQFIPKICQLVLKIKKKQLKNQIPKESKIYEAAFSREEISYYVSCMFLCILKDQDRKIYKDFRLIYLKDLVQQINIRRQEKIKCFYEYLKQALDFSEKESKEVVIFQRINCGQLEDYENWVDKLKAIKLKNVQLTDDKLIEDFPGTLQVDFANCDIGGGILGNGLVQEEIRFCVCPEMLVSLLVFDQSMEANEVIIMKGIKQYSDYQGYSNSFRFVKMGNSKIQKQKRNNPQTILAIDALCFNSSDNQFSEVNVSRELNKSYMGFKQEDQLKTISTGKWGCGAFLGVFDLKFAIQWIASSRSNKKMIICTFQDEQTTKQIQQVFDLYKQKNASIFLKLVMDYPNSKYMEDYTLLEYLIELGKEKATSKNS
For the protein B3, the Km in data set [3] worked out at 210 ± 10 µM; in data set [4] it was 210 ± 13 µM. Also, the results for the Vmax in data set [3] and in data set [4] were 16.9 µmol/min/mg and 28.6 µmol/min/mg, respectively.
